Substrate: Nc1ncnc2c1ncn2[C@@H]1O[C@H](CO[P@](=O)(O)O[P@](=O)(O)OC[C@H]2O[C@@H](n3cnc4c(N)ncnc43)[C@H](O)[C@@H]2O)[C@@H](O)[C@H]1O
Assay: HPLC of mononucleotide formed, Michaelis-Menten fit
Format: biochemical, Agrobacterium fabrum
Settings: pH 7.5 (100 mM TRIS/HCl), 1 mM CoCl2, 100 mM KCl, 37°C

B1: AtCOG1058 (Agrobacterium fabrum str. C58) (protein)
chain: MSNPSSTSSVVTAAMLAIGDELLSGRTKDKNIGHLADVLTMSGIDLKEVRIVADEEESIVEALNALRSRYDYVFTSGGIGPTHDDITADAISAAFGLPCEHDAEALRLLGDMYRVREMEFTEARKRMARMPKGAAHIANPVSVAPGFVIGNVYVMAGVPQVFQAMLDNVMPTLRTGAKVMSQAVRSPYGEGDIGTPLTAIQKAHPETSIGSYPKYDGQRFSTEIVVRARDAGLLKAATEAVAAMIEAIGQEKQLAASKGDATA
notes: stand-alone COG1058 protein cloned from genomic DNA in pET100/D-TOPO; N-terminal His tag; E. coli BL21(DE3); HisTrap purified
B1 gave a Km of 210 ± 22 µM and a kcat of 5.6 ± 0.7 s⁻¹.

From PMC3680494, “Genomics-Guided Analysis of NAD Recycling Yields Functional Elucidation of COG1058 as a New Family of Pyrophosphatases” (PLoS ONE, 2013)
